Where two headings read alike, the source gives them in different places.
How the values were obtained:
Assay in all cases: cell-based or functional assay
[1] = biological target: SARS-CoV-2 spike (S) protein, Omicron BA.2 + N460K (SARS-CoV-2) (UniProt P0DTC2)
[2] = biological target: SARS-CoV-2 spike (S) protein, Omicron BA.2 + D339H (SARS-CoV-2) (UniProt P0DTC2)
[3] = biological target: SARS-CoV-2 spike (S) protein, Omicron BA.2 + G446S (SARS-CoV-2) (UniProt P0DTC2)
[4] = biological target: SARS-CoV-2 spike (S) protein, Omicron BA.2 + N460K (SARS-CoV-2) (UniProt P0DTC2); remark: listed apart in the source
[5] = biological target: SARS-CoV-2 spike (S) protein, synthetic variant "BA.4+all"
[6] = biological target: SARS-CoV-2 Omicron BA.1 spike (S) protein, pseudovirus construct (SARS-CoV-2) (UniProt P0DTC2)
[7] = biological target: SARS-CoV-2 Omicron BA.3 spike (S) protein, pseudovirus construct (SARS-CoV-2) (UniProt P0DTC2)
[8] = biological target: SARS-CoV-2 Omicron BA.1.1 spike (S) protein, pseudovirus construct (SARS-CoV-2) (UniProt P0DTC2)
[9] = biological target: SARS-CoV-2 Victoria spike (S) protein (SARS-CoV-2) (UniProt P0DTC2)
[10] = biological target: SARS-CoV-2 Omicron BA.2 spike (S) protein, pseudovirus construct (SARS-CoV-2) (UniProt P0DTC2)

Sequence of Omi-18 (antibody) (VH): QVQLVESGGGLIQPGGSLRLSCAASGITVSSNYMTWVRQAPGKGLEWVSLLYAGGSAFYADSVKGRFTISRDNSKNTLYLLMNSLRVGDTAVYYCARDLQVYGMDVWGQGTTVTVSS
Sequence of Omi-18 (antibody) (VL): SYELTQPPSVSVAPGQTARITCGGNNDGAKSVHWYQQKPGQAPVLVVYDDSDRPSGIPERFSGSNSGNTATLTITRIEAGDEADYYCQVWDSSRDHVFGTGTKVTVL
Sequence of Omi-12 (antibody) (VH): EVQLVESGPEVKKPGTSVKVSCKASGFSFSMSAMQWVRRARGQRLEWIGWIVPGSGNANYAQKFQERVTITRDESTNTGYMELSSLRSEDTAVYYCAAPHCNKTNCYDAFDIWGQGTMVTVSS
Sequence of Omi-12 (antibody) (VL): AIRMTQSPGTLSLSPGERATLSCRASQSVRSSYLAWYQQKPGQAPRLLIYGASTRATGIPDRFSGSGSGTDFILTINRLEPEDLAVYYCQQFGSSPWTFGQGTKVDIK
Sequence of Omi-42 (antibody) (VH): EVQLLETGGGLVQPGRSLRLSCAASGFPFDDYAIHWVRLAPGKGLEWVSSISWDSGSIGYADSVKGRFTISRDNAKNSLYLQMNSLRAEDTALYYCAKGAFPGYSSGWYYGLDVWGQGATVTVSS
Sequence of Omi-42 (antibody) (VL): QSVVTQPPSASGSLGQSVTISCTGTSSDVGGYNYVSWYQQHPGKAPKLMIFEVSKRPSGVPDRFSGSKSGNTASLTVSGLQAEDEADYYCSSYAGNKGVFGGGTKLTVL
Sequence of Omi-32 (antibody) (VH): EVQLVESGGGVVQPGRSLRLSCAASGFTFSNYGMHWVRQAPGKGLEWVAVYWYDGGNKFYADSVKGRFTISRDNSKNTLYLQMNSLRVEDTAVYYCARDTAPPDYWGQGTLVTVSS
Sequence of Omi-32 (antibody) (VL): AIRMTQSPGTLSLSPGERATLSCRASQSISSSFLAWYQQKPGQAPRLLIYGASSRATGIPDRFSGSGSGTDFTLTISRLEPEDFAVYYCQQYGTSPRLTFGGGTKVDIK
Sequence of Omi-29 (antibody) (VH): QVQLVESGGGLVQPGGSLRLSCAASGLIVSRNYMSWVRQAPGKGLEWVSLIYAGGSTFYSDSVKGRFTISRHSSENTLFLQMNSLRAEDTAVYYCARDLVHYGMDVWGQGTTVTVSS
Sequence of Omi-29 (antibody) (VL): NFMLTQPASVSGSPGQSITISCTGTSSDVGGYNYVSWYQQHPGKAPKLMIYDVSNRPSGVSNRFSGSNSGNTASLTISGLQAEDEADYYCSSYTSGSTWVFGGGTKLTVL
Sequence of AZD8895 (antibody) (VH): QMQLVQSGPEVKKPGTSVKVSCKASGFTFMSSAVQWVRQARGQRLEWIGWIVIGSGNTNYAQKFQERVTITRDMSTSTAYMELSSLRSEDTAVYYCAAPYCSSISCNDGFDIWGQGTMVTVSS
Sequence of AZD8895 (antibody) (VL): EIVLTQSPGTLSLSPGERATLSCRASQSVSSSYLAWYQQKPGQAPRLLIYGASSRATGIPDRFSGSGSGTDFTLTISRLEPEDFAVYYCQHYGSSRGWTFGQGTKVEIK

Omi-29 (antibody)
pseudovirus neutralisation IC50 [1]: > 10 µg/mL | pseudovirus neutralisation IC50 [2]: 18 ng/mL | pseudovirus neutralisation IC50 [3]: 0.024 µg/mL | pseudovirus neutralisation IC50 [4]: > 10 µg/mL | IC50, pseudoviral neutralization [5]: > 10 µg/mL

AZD8895 (antibody)
IC50, pseudoviral neutralization [5]: > 10 µg/mL

Ly-CoV16 (antibody)
IC50, pseudoviral neutralization [5]: > 10 µg/mL

Omi-42 (antibody)
pseudovirus neutralisation IC50 [1]: 0.007 µg/mL | pseudovirus neutralisation IC50 [2]: 11 ng/mL | pseudovirus neutralisation IC50 [3]: 0.016 µg/mL | pseudovirus neutralisation IC50 [4]: 0.007 µg/mL | IC50, pseudoviral neutralization [5]: 0.008 µg/mL

Omi-18 (antibody)
pseudovirus neutralisation IC50 [1]: 0.014 µg/mL | pseudovirus neutralisation IC50 [2]: 3 ng/mL | pseudovirus neutralisation IC50 [3]: 0.003 µg/mL | pseudovirus neutralisation IC50 [4]: 0.014 µg/mL | IC50, pseudoviral neutralization [5]: 3.61 µg/mL

LY-CoV1404 (bebtelovimab) (antibody)
IC50, pseudoviral neutralization [5]: > 10 µg/mL

AZD7442 (a combination of AZD8895 and AZD1061)
IC50, pseudoviral neutralization [5]: > 10 µg/mL

REGN10933 (antibody)
IC50, pseudoviral neutralization [5]: > 10 µg/mL

Omi-32 (antibody)
pseudovirus neutralisation IC50 [1]: 2.34 µg/mL | pseudovirus neutralisation IC50 [2]: 683 ng/mL | pseudovirus neutralisation IC50 [3]: 0.33 µg/mL | pseudovirus neutralisation IC50 [4]: 2.34 µg/mL | IC50, pseudoviral neutralization [5]: > 10 µg/mL

REGN10987 (antibody)
IC50, pseudoviral neutralization [5]: > 10 µg/mL

ADG20 (antibody)
IC50, pseudoviral neutralization [5]: > 10 µg/mL

S309 (antibody)
IC50, pseudoviral neutralization [5]: 0.584 µg/mL

Omi-03 (antibody)
pseudovirus neutralisation IC50 [1]: 0.401 µg/mL | pseudovirus neutralisation IC50 [2]: 6 ng/mL | pseudovirus neutralisation IC50 [3]: 0.005 µg/mL | pseudovirus neutralisation IC50 [4]: 0.401 µg/mL | IC50, pseudoviral neutralization [5]: 0.432 µg/mL

Ly-CoV555 (antibody)
IC50, pseudoviral neutralization [5]: > 10 µg/mL

Known Antibody E (AZD7442)
IC50 (ug/ml), pseudovirus [6]: 0.232 µg/mL | IC50 (ug/ml), pseudovirus [7]: 0.065 µg/mL | IC50 (ug/ml), pseudovirus [8]: 0.806 µg/mL | IC50 (ug/ml), pseudovirus [9]: 0.001 µg/mL | IC50 (ug/ml), pseudovirus [10]: 0.008 µg/mL

Omi-12 (antibody)
pseudovirus neutralisation IC50 [1]: 0.011 µg/mL | pseudovirus neutralisation IC50 [2]: 3 ng/mL | pseudovirus neutralisation IC50 [3]: 0.003 µg/mL | pseudovirus neutralisation IC50 [4]: 0.011 µg/mL | IC50, pseudoviral neutralization [5]: > 10 µg/mL

AZD1061 (antibody)
IC50, pseudoviral neutralization [5]: > 10 µg/mL
